{
  "source": "patent US20050176101",
  "key": {"[1]": {"target": "T1, His-tagged human Abl kinase domain G227-V515 coexpressed with PTP1b phosphatase domain (pET-SPEC BI-PTP Abl G227-V515-X), unphosphorylated", "T1 chain": "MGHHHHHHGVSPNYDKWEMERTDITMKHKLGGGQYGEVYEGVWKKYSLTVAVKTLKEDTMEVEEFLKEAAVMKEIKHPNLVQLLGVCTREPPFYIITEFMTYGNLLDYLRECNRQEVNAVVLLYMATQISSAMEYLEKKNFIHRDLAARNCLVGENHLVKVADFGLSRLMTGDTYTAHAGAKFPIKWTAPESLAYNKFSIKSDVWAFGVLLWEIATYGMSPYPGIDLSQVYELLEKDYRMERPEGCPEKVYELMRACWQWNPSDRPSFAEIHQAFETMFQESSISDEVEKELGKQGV"}, "[2]": {"target": "His-tagged human c-MET kinase domain constructs (various lengths) coexpressed with PTP1B from pET-N6 BI-PTP, unphosphorylated"}},
  "data": [
    {"protein": "human PTP1b phosphatase domain, residues Met 1 to Gly 283 (protein) MEMEKEFEQIDKSGSWAAIYQDIRHEASDFPCRVAKLPKNKNRNRYRDVSPFDHSRIKLHQEDNDYINASLIKMEEAQRSYILTQGPLPNTCGHFWEMVWEQKSRGVVMLNRVMEKGSLKCAQYWPQKEEKEMIFEDTNLKLTLISEDIKSYYTVRQLELENLTTQETREILHFHYTTWPDFGVPESPASFLNFLFKVRESGSLSPEHGPVVVHCSAGIGRSGTFCLADTCLLLMDKRKDPSSVDIKKVLLEMRKFRMGLIQTADQLRFSYLAVIEGAKFIMG", "values": [
      {"measurement": "state of phosphorylation detectable with PY20 anti-phospho-Tyr antibody (Western blot)", "setting": "[1]", "value": "the Abl coexpressed with PTP1B has little or no phosphorylation above background, whereas Abl coexpressed alone is highly phosphorylated"},
      {"measurement": "state of phosphorylation (methods as described for the Abl kinase domain)", "setting": "[2]", "value": "When expressed alone the MET was phosphorylated and when coexpressed with PTP1B the MET was unphosphorylated"}
    ]}
  ]
}
